Experimental data as given in the supplement of paper PMC10065799, “High-throughput profiling of sequence recognition by tyrosine kinases and SH2 domains using bacterial peptide display” (eLife, 2023).

Target: Hck (UniProt P08631)
Assay: phosphorylation enrichment, bacterial display (enrichment ratio); higher = better substrate or ligand; peptides without Tyr show the background
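Further: 11-residue human phosphosite peptides and single-mutation variants displayed on the E. coli surface, counted by deep sequencing, each peptide's frequency after selection divided by its frequency in the unselected input library; frequency after pTyr selection over input frequency; kinase dosed for 20-30% of maximal phosphorylation in three min.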

Chain of Hck (P08631 whole entry, looked up): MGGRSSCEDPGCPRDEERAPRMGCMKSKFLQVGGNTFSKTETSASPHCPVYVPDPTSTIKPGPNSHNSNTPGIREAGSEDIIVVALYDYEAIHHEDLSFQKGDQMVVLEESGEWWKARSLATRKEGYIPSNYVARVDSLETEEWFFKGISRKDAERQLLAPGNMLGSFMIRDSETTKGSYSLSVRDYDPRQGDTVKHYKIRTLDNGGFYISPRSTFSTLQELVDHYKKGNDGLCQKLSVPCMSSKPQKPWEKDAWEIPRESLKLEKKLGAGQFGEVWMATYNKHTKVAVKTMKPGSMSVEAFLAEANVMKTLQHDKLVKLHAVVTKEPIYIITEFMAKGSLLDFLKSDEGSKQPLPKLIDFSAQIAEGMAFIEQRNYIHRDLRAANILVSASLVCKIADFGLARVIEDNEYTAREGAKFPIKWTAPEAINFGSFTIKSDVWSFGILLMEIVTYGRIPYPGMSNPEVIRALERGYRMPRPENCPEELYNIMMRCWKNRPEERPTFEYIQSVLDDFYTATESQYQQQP

Sequence	phosphorylation enrichment
IWGKKYPTCNS [PTPRZ1_Y53_N48I]	0.406
IINENYDYLKV [NUP98_Y1664_G1669V]	1.89
PTTKTYFPRFD [HBA1_Y43_H46R]	0.38
FQQLFYLLQIN [IQGAP2_Y890_T894I_YF]	0.617
AVHPGYGFLSE [PCCA_Y143]	0.666
PNATLYKMTSI [SERPINA7_Y40_S43T]	0.636
EYKKKYSDADI [CKAP5_Y1860]	0.367
PQGVSYIYTID [DCX_Y103_R102S]	5.22
VDGSLYKTHPQ [HK1_Y417]	0.365
KKLAEYGPQGK [CLCA1_Y147_R152K]	0.401
SDPIIYTLENV [ADGRE1_Y534_I539V]	1.61
DVSKEYGHLLP [HRC_Y99]	0.801
DKVFTYIFIME [SCN4A_Y1074]	0.575
IGEGTYGQVYK [CDK13_Y716]	11.8
TNEYEYDELIV [TGM1_Y136_D132N]	0.769
LTQRTYMSENA [GPAA1_Y49]	0.455
QMRLRYLAAEE [CEP120_Y884]	0.776

Sequence	phosphorylation enrichment
RVSSVYTRSTG [CCR5_Y339_A335V]	1.13
AEFGLYGAMVR [VSX2_Y222_YF]	6.05
ADQLDYIKALN [HPRT1_Y81_L78Q]	0.526
TRTDAYAVSSF	0.357
TLNHQYDYTFD [CSNK1A1_Y292]	0.536
FGVTLYPNSRE [MEP1A_Y472]	0.599
DQVEQYNKELE [LMNA_Y259_K260N]	0.581
HEHKGYNANFC [TGFB2_Y341_P338H]	0.832
LGSNGCKKLLK [SEPSECS_Y334_Y334C]	0.768
KNGSNYVVKGN [KIT_Y823_D820G]	0.45
WEPFGYAVTRC [PTPRT_Y412]	0.479
RSFLSYFTSHV [NEFL_Y442_P440L_YF]	0.915
ADELEYSRTGL [MMUT_Y287_G284E]	0.517
IIGNGYYFHVF [MYBPC3_Y1135_R1138H]	0.396
YLQEIHNSNNQ [FGG_Y140_Y140H]	0.432
EQPNPYMVLDI [ROCK2_Y1197_S1194P]	1.23

Target: FGFR1 (UniProt P11362)
Sequence (P11362 whole entry, looked up): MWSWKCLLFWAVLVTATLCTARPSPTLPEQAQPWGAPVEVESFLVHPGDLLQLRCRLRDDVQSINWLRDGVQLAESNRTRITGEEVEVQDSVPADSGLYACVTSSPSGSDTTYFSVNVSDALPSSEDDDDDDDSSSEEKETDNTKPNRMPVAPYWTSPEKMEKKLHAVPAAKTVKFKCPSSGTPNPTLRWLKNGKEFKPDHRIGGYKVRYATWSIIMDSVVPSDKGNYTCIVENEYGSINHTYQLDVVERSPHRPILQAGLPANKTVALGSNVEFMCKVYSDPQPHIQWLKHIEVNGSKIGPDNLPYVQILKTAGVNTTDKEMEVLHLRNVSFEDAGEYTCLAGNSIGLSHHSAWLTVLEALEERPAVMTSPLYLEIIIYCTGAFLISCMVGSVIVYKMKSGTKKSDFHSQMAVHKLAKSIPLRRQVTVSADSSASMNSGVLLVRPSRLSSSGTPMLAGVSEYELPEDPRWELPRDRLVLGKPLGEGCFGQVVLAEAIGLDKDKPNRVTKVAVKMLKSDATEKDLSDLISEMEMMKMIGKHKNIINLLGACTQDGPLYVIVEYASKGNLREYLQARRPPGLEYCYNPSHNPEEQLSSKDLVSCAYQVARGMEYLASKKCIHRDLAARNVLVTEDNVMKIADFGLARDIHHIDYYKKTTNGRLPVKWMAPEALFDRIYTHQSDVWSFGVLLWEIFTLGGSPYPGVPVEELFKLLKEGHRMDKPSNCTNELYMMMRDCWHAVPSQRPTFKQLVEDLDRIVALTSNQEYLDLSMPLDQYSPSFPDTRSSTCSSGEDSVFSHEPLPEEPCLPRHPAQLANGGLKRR
Assay: as above

Sequence	phosphorylation enrichment
IWGKKYPTCNS [PTPRZ1_Y53_N48I]	0.432
IINENYDYLKV [NUP98_Y1664_G1669V]	1.54
PTTKTYFPRFD [HBA1_Y43_H46R]	0.455
FQQLFYLLQIN [IQGAP2_Y890_T894I_YF]	0.648
AVHPGYGFLSE [PCCA_Y143]	0.662
PNATLYKMTSI [SERPINA7_Y40_S43T]	0.86
EYKKKYSDADI [CKAP5_Y1860]	0.404
PQGVSYIYTID [DCX_Y103_R102S]	1.06
VDGSLYKTHPQ [HK1_Y417]	0.338
KKLAEYGPQGK [CLCA1_Y147_R152K]	0.369
SDPIIYTLENV [ADGRE1_Y534_I539V]	0.577
DVSKEYGHLLP [HRC_Y99]	0.551
DKVFTYIFIME [SCN4A_Y1074]	0.54
IGEGTYGQVYK [CDK13_Y716]	0.553
TNEYEYDELIV [TGM1_Y136_D132N]	0.809
LTQRTYMSENA [GPAA1_Y49]	0.452
QMRLRYLAAEE [CEP120_Y884]	0.931

Sequence	phosphorylation enrichment
RVSSVYTRSTG [CCR5_Y339_A335V]	0.936
AEFGLYGAMVR [VSX2_Y222_YF]	0.538
ADQLDYIKALN [HPRT1_Y81_L78Q]	0.458
TRTDAYAVSSF	0.567
TLNHQYDYTFD [CSNK1A1_Y292]	0.85
FGVTLYPNSRE [MEP1A_Y472]	0.556
DQVEQYNKELE [LMNA_Y259_K260N]	0.552
HEHKGYNANFC [TGFB2_Y341_P338H]	0.7
LGSNGCKKLLK [SEPSECS_Y334_Y334C]	0.661
KNGSNYVVKGN [KIT_Y823_D820G]	0.435
WEPFGYAVTRC [PTPRT_Y412]	0.547
RSFLSYFTSHV [NEFL_Y442_P440L_YF]	0.752
ADELEYSRTGL [MMUT_Y287_G284E]	0.402
IIGNGYYFHVF [MYBPC3_Y1135_R1138H]	0.587
YLQEIHNSNNQ [FGG_Y140_Y140H]	0.404
EQPNPYMVLDI [ROCK2_Y1197_S1194P]	1.13

Test system: c-Abl (mouse)
Assay: as above

Sequence	phosphorylation enrichment
IWGKKYPTCNS [PTPRZ1_Y53_N48I]	0.628
IINENYDYLKV [NUP98_Y1664_G1669V]	0.664
PTTKTYFPRFD [HBA1_Y43_H46R]	0.609
FQQLFYLLQIN [IQGAP2_Y890_T894I_YF]	1.06
AVHPGYGFLSE [PCCA_Y143]	0.692
PNATLYKMTSI [SERPINA7_Y40_S43T]	1.3
EYKKKYSDADI [CKAP5_Y1860]	0.637
PQGVSYIYTID [DCX_Y103_R102S]	1.32
VDGSLYKTHPQ [HK1_Y417]	0.425
KKLAEYGPQGK [CLCA1_Y147_R152K]	0.427
SDPIIYTLENV [ADGRE1_Y534_I539V]	0.723
DVSKEYGHLLP [HRC_Y99]	0.747
DKVFTYIFIME [SCN4A_Y1074]	0.968
IGEGTYGQVYK [CDK13_Y716]	0.593
TNEYEYDELIV [TGM1_Y136_D132N]	0.962
LTQRTYMSENA [GPAA1_Y49]	0.488
QMRLRYLAAEE [CEP120_Y884]	0.916

Sequence	phosphorylation enrichment
RVSSVYTRSTG [CCR5_Y339_A335V]	0.873
AEFGLYGAMVR [VSX2_Y222_YF]	0.678
ADQLDYIKALN [HPRT1_Y81_L78Q]	0.708
TRTDAYAVSSF	0.645
TLNHQYDYTFD [CSNK1A1_Y292]	0.565
FGVTLYPNSRE [MEP1A_Y472]	0.995
DQVEQYNKELE [LMNA_Y259_K260N]	0.692
HEHKGYNANFC [TGFB2_Y341_P338H]	0.464
LGSNGCKKLLK [SEPSECS_Y334_Y334C]	1.06
KNGSNYVVKGN [KIT_Y823_D820G]	0.411
WEPFGYAVTRC [PTPRT_Y412]	0.673
RSFLSYFTSHV [NEFL_Y442_P440L_YF]	1.05
ADELEYSRTGL [MMUT_Y287_G284E]	0.644
IIGNGYYFHVF [MYBPC3_Y1135_R1138H]	0.667
YLQEIHNSNNQ [FGG_Y140_Y140H]	0.445
EQPNPYMVLDI [ROCK2_Y1197_S1194P]	0.575

Target: EPHB2 (UniProt P29323)
Sequence (P29323 whole entry, looked up): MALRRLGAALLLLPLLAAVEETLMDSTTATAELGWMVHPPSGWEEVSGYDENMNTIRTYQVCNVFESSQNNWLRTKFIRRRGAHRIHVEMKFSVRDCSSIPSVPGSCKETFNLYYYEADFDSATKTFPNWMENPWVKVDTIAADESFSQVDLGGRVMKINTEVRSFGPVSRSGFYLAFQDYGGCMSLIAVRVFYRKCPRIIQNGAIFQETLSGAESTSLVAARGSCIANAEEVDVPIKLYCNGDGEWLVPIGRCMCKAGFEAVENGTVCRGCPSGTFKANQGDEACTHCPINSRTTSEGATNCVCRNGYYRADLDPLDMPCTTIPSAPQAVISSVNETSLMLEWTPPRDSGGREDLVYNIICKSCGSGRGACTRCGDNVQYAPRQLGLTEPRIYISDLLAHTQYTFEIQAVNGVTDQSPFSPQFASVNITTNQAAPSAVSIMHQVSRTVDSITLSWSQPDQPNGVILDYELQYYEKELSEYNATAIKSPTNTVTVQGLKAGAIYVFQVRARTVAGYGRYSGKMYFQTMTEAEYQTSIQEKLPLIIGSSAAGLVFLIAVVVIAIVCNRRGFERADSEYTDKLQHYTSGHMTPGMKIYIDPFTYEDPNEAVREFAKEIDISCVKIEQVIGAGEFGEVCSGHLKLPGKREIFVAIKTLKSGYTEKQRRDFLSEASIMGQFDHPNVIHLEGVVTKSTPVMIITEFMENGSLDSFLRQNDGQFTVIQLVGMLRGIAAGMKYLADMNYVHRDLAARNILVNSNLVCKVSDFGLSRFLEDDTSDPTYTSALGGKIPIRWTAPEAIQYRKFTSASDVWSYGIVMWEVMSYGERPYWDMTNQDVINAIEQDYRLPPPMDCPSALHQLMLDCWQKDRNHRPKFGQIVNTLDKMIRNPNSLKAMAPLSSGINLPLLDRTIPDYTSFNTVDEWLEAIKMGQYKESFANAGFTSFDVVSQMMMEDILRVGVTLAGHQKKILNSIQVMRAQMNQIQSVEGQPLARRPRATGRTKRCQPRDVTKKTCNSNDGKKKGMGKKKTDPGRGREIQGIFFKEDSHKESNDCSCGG
Assay: as above

Sequence	phosphorylation enrichment
IWGKKYPTCNS [PTPRZ1_Y53_N48I]	0.491
IINENYDYLKV [NUP98_Y1664_G1669V]	1.31
PTTKTYFPRFD [HBA1_Y43_H46R]	0.421
FQQLFYLLQIN [IQGAP2_Y890_T894I_YF]	0.815
AVHPGYGFLSE [PCCA_Y143]	0.672
PNATLYKMTSI [SERPINA7_Y40_S43T]	1.02
EYKKKYSDADI [CKAP5_Y1860]	0.474
PQGVSYIYTID [DCX_Y103_R102S]	0.856
VDGSLYKTHPQ [HK1_Y417]	0.389
KKLAEYGPQGK [CLCA1_Y147_R152K]	0.324
SDPIIYTLENV [ADGRE1_Y534_I539V]	0.576
DVSKEYGHLLP [HRC_Y99]	0.608
DKVFTYIFIME [SCN4A_Y1074]	0.695
IGEGTYGQVYK [CDK13_Y716]	1.59
TNEYEYDELIV [TGM1_Y136_D132N]	0.975
LTQRTYMSENA [GPAA1_Y49]	0.528
QMRLRYLAAEE [CEP120_Y884]	0.643

Sequence	phosphorylation enrichment
RVSSVYTRSTG [CCR5_Y339_A335V]	0.867
AEFGLYGAMVR [VSX2_Y222_YF]	0.719
ADQLDYIKALN [HPRT1_Y81_L78Q]	0.474
TRTDAYAVSSF	0.464
TLNHQYDYTFD [CSNK1A1_Y292]	0.706
FGVTLYPNSRE [MEP1A_Y472]	0.68
DQVEQYNKELE [LMNA_Y259_K260N]	0.672
HEHKGYNANFC [TGFB2_Y341_P338H]	0.727
LGSNGCKKLLK [SEPSECS_Y334_Y334C]	1.04
KNGSNYVVKGN [KIT_Y823_D820G]	0.38
WEPFGYAVTRC [PTPRT_Y412]	0.567
RSFLSYFTSHV [NEFL_Y442_P440L_YF]	0.743
ADELEYSRTGL [MMUT_Y287_G284E]	0.568
IIGNGYYFHVF [MYBPC3_Y1135_R1138H]	0.559
YLQEIHNSNNQ [FGG_Y140_Y140H]	0.431
EQPNPYMVLDI [ROCK2_Y1197_S1194P]	0.571
